Results on one molecule are retold here after PMC12440807.

This series concerns the target RNA polymerase II;RECQL5;CSB;CSA-DDB1;UVSSA;ELOF1 (Sus scrofa domesticus?;Homo …, UniProt A0A8D1DPV6;A0A0B8RVL1;P19387;O15514;I3LSI7;P61218;P62487;P52434;P36954;P52435;P6 …, |||||). As to the kind of experiment: cryo-EM; 1 mM ADP; phosphorylated Pol II; glutaraldehyde cross-linked; 3.5 A; EMSA: 20 mM HEPES pH 7.5, 66 mM NaCl, 5% glycerol, 1 mM DTT, 0.25 mg/ml BSA, on ice 30 min; 6% gel, 0.5x TBE, 4 C. Conditions: protein: native;recombinant;recombinant;recombinant;recombinant;recombinant; copies: 1;1;1;1;1;1;1;1;1;1;1;1;1;1;1;1;1;1; 15-nt mismatch bubble; RNA 45 nt, 3' end hybridized to template.

B1: EC-TCR DNA-RNA scaffold (mixed)
DNA 1: CGCTCTGCTCCTTCTCCCATCCTCTCGATGGCTATGAGATCAACTAG
DNA 2: CTAGTTGATCTCATATTTCATTCCTACTCAGGAGAAGGAGCAGAGCG
RNA: ACAUCAUAACAUUUGAACAAGAAUAUAUAUACAAAAUCGAGAGGA
B1: the binding result is “binds”.
